From paper PMC8570598

Target: Rat tail collagen-I (polymerized fibrillar collagen type I) (rat) (UniProt P02454)
Experiment: FRAP

Sequence of UniProt P02454 (P02454 152-1207, chain 1 of 2): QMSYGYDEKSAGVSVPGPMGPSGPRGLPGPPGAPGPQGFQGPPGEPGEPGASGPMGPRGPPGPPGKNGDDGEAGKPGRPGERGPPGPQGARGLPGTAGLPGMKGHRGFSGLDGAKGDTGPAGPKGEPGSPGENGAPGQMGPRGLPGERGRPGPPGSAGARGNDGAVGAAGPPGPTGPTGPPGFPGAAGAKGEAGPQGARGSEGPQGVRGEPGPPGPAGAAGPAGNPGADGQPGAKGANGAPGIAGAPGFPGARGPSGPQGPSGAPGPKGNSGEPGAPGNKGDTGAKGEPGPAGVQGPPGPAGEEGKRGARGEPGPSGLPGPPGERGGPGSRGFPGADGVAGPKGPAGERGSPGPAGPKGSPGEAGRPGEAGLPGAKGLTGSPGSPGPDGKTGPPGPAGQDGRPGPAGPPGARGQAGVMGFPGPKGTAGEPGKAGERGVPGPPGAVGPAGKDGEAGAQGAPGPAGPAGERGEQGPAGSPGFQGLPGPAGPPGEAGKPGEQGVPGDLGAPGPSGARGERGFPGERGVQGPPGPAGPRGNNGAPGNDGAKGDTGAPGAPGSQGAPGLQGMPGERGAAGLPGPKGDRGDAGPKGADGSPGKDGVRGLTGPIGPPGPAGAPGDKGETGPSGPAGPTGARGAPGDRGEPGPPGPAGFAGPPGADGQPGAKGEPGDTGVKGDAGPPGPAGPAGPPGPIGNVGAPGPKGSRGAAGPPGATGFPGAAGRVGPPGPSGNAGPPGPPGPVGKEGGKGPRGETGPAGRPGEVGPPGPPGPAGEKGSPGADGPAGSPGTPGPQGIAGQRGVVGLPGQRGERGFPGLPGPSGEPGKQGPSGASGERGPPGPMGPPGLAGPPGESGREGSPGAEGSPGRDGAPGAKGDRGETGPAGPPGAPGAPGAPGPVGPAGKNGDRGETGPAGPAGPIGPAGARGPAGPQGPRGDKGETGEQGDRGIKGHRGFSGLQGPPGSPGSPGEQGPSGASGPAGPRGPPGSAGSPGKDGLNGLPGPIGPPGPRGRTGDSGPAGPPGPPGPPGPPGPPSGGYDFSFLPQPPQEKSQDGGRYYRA
Sequence of UniProt P02454 (P02466 86-1125, chain 2 of 2, further chain): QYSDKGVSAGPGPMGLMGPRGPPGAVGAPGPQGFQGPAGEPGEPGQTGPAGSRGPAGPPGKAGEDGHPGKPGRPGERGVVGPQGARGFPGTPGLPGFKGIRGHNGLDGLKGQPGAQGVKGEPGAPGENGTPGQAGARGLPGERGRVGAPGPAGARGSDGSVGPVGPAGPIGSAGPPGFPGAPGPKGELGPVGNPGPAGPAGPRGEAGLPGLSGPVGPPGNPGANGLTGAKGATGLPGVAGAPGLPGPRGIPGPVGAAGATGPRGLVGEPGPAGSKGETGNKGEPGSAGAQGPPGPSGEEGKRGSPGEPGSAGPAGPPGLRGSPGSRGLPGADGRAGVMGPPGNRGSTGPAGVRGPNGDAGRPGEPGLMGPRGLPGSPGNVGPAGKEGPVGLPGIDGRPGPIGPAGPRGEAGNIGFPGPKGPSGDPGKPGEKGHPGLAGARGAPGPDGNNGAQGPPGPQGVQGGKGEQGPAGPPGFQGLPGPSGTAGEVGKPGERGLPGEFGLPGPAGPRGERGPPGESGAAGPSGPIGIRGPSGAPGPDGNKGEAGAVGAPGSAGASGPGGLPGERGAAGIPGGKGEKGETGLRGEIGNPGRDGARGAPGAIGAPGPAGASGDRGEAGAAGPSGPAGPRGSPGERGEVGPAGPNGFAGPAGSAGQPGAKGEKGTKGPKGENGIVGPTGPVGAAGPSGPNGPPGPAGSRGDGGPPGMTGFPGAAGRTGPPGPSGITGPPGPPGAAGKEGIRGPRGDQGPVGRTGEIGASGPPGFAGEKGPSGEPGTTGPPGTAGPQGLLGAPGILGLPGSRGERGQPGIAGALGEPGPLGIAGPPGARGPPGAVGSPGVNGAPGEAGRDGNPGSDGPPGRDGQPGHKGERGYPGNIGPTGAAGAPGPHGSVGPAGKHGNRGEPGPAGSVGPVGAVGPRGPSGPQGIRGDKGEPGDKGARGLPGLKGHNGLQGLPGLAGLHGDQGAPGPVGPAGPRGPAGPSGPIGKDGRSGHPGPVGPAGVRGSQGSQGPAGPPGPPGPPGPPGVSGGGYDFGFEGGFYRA

mobile fraction (FRAP, free Alexa488-EGF in the medium): 50%
Substance: Alexa488-labeled epidermal growth factor (EGF) (ligand)
